According to the DeepSol protein solubility set:

assay: soluble on expression in E. coli; label from the status in PepcDB or PDB records

Row | Sequence | soluble on expression in E. coli
1 | MVTVPDAIKGSSPTPQQDLVRVMSAPQLYVGQEARFGGKVVAVQNQQGKTRLEIATVPLDSGARPTLGEPSRGRIYADVNGFLDPVDFRGQLVTVVGPITGAVDGKIGNTPYKFMVMQVTGYKRWHLTQQVIMPPQPIDPWFYGGRGWPYGYGGWGWYNPGPARVQTVVTELEHHHHHH | soluble
2 | MVVEENCSMHHLERELDLELEIDMAMECAPIGRTIKSALLRAQSEARVIVGLSAAINVLSKSPEGSLFCLMAQPKDGDSATHMHEVLLEAFCYENDIYVIKVDDATKLSRILGQDSVESCCLVQKVWADAPEEQLTKAENQLVDYCEAHWDAPQQPIVQLPAV | not soluble
3 | MVVFNGLLKIKICEAVSLKPTAWSLRDAVGPRPQTFLLDPYIALNVDDSRIGQTATKQKTNSPAWHDEFVTDVCNGRKIELAVFHDAPIGYDDFVANCTIQFEELLQNGSRHFEDWIDLEPEGKVYVIIDLSGSSG | soluble
4 | MVVNTHRVPSVDVLLDVITERIGLINGAKKLYTTSGTLVKDINKIKDGQNYVASSSHFTPAAYGGQHQPIQKEVKLKKKKKKRSQTVQPRKTEHIELGDEISIPLNEPVVLEKKKKKKKKLVQKNLDLHGSIETLAETAEIELPSEIEDSEEEDEHEHRRSATPDHHRPATKHSVAPSRASSRRGSRRDEEKREEEDEERKKKDEKKRKSVSSSRRKSQAQHHGQPNWGDLSSFTKNIESLLKN | not soluble
5 | MVYVSNKYLTMSEMKVNAQYILNYLSSNGWTKQAICGMLGNMQSESTINPGLWQNLDEGNTSLGFGLVQWTPASNYINWANSQGLPYKNMDSELKRIIWEVNNNAQWINLRDMTFKEYIKSTKTPRELAMIFLASYERPANPNQPERGDQAEYWYKNLSGGGGGGLQLAQFPMDIINISQGENGSFSHKGTLCIDFVGKTEKYPYYAPCDCTCVWRGDASAYLAWTSDKEVMCADGSVRYITWVNVHESPLPFDVGKKLKKGDLMGHTGIGGNVTGDHWHFNVIDGKEYQGWTKKPDSCLAGTELHIYDVFAVNNVEIINGNGYDWKTSDWQDG | soluble
6 | MWLDRRGWLRVLGHWRYDLRRPSFTRTWSGDKGPMAETVSTQVGTEGGLRASHQQNGDAGGDAKVELSPGPPKPAGREVEPAPVGGEHPSAAAPGPGKHKKRRGATRERVVPPPKKRRTGVSFGDEHFAETSYYFEGGLRKVRPYYFDFRTYCKGRWVGHSLLHVFSTEFRAQPLAYYEAAVRAGRLQLNEKPVQDLNIVLKDNDFLRNTVHRHEPPVTAEPIRLLAENEDVVVVDKPSSIPVHPCGRFRHNTVIFILGKEHQLKELHPLHRLDRLTSGVLMFAKTAAVSERIHEQVRDRQLEKEYVCRVEGEFPTEEVTCKEPILVVSYKVGVCRVDPRGKPCETVFQRLSYNGQSSVVRCRPLTGRTHQIRVHLQFLGHPILNDPIYNSVAWGPSRGRGGYIPKTNEELLRDLVAEHQAKQSLDVLDLCEGDLSPGLTDSTAPSSELGKDDLEELAAAAQKMEEVAEAAPQELDTIALASEKAVETDVMNQETDPLCAECRLVRQDPLPQDLVMFLHALRYKGPGFEYFSPMPAWAQDDWQKD | soluble
7 | MWNNVTTIKIQFHRIEQLGSVQLDDKNRICKFTSFDGQLELQGRHGRCSVDIESPEFVRFVQFLVNKTEKSNEPIDQRRVFGKFRALEHGVLDVTTYRNRFHGVVARNMILLDNLSIDLSIRMIFALSGKMETNFLSEVEKHGIVRLDNQNRIIEYVANDGKMKLKGQHDGRKDHGTQATQDPV | not soluble
8 | MWPSNRGPTLFQYSIRCLGFVAFIGVVRCHCPHMMGVKPPGPPSGPSPPGKFPDGDEGWDYDETAAPGIVPEPHFIQSTYIYRSPNVQEKTFSSRVVNVLKDIRTRLAKSARLTLENENIECSSPTDHYRCQEYPASGTWNYLIVEDQQKGAVTYTFDRKFNEKNDGTIEMALLDAFSRHSPSSLIAFASSEAEKEVGYIRALTVQEMDSLSGKRSHQKISMEKFGPNELILLEPALLEVRTGANLKLNSDSLRRIDSTKEFDKLLEEFRNVFILFWNSNRMVSLHTFNLWSRVADKIKISEDTLLAHVPCHDNADFCQGLNSEDYHTVVSYRNGQNTGKTENIGDVEFYENWVELSLSGAIQRLPNESKLSEFKKGIVGGKKRSSVTIGVFPSDQDTSFQHFQIAAEKLSGKYYVAYFINENSKPAITTYRHAEKQKRTDYSGKFDPATLMEFITKSSIPSIIGISNGFTTDLLFHQKRPILIQIGGAGEFEPFSKLSARQDARKTYIFTKIDGESEMIKKTKKALGVGENESIIVFLNKDRVHRIPISKPKCPDHLQKILQMIITSEADQVLSTKEPHPLRYLQVEKVNEVFGFEETLVLPDHTLFLDSDPFSRHPPITEGGGGGCPFMQGGGAPTESSQHSEL | not soluble
9 | MWQLKKEQNVPIYRSIMEMIVQKIQTGELLPGEKIPSERKLAEYLSVNRSTVVHALDELVDLGWIVRKRGSGTIVNEGKWGVMMTPRTDWHRYLEQNVFKQVHPLVTEIELRAKQNLPTDLDMYTGELPLDLIPSFDFPALNWKQFLKEEAQDELGYLPLRKEIQAITATEYQLHLPSESLLLTSGAQQALFLVLQVLLRQGDSVAVEDPSFFYALPIFQAAGVRLFGVPMTEEGIDLEALEQTIRQHRIKMVMVNPSFQNPTGTVMPLRKREQLVKVCQTYQVPILEDDVFGQLSFIPKTEIPPLKKLDPDNVLYIGSLSKILGSTTKIGWLSAPASVTKQIAEARKMMDVSLSIFPQMLAKMAIEDPSFSEKITLLNKQVEQRATAVYQVFKSLSEWEVSPVKGGFYLWAHWRQGALKPEDWQVFLREGVLVAPSVAFSEKRGSIRLNCSRISPEEMPLFCERMVRITRQLSENRQTKIEQ | not soluble
10 | MWRGKYSGGYQNRFVSAKSSGTSSLSDGKSMNNVPPPAALTVGNAPVPPPNRNILLSNRKEQEMKKEQEYANLMAYGSTSEKQSRRKRIYDDEYLEGGSDDEKPASSSSKLAADDDDEEDELDAFMAGIEKQASSDKKVSEQKEKDRKEGKDTEDPSKKGLGRADIDEEDMQESLFKFMEEYKEKHENDDEQLEYDEDGNIIWSWKKVIDPLPDIDHSQIQYQKFNKNFYEEHEDIKRLHYMDVIRLQNTMNLRVGGLKPPRPVCSFAHFSFDKLLMEAIRKSEYEQPTPIQAMAIPSALSGRDVLGIAKTGSGKTAAYLWPAIVHIMDQPDLKAGEGPVAVIVVPTRELAIQVFQEAKKFCKVYNINPICAYGGGSKWEQSNELQNEGAEMVVCTPGRIIDLVKMGATNFLRTTFLVFDEADRMFDMGFEAQVKSISDHVRPDRQCLMFSATFKQKVERLARDALVDPVRIVQGEVGEANADIEQKVFVMQNQDVKLHWLIRNLVEFASLGKVLIFVTKKLDSEDVAKKLKMKDFDIVLLHGDMLQAERNENLLKFRKKSQILVATDVAARGLDISEIRTVINFDMARDIDTHVHRIGRTGRAGHKGTAYTLVTEKDIEMVGHLVKNLESVSQEVPKPLMDLAMKSSWFRGQRAGNGGPSTGTQTRGRMGLGYTPKVRQVGGGATGAQFDPLKEQKSCRGGGNQTVDGMIRNAQSFATSSSSSSSSSSGPASGANRAQMLKSAFQKSFQTTFQRPTNESSNLPQQVASDPRPEWKKKVDELNAKIAQQQASSASGGSSSSSSSSKRSRWE | not soluble
11 | MWTVTKIRADYEGWWLFSDWPENIVEKYQYQDFDDMFKHYQQLINQCKVQFDNYVTGKYNIYAFYNNCDMNYCEDCEEDLQIFYSFIVLQNNEVYYKLPIIDLEHHHHHH | soluble
12 | MWYHRLSHLHSRLQDLLKGGVIYPALPQPNFKSLLPLAVHWHHTASKSLTCAWQQHEDHFELKYANTVMRFDYVWLRDHCRSASCYNSKTHQRSLDTASVDLCIKPKTIRLDETTLFFTWPDGHVTKYDLNWLVKNSYEGQKQKVIQPRILWNAEIYQQAQVPSVDCQSFLETNEGLKKFLQNFLLYGIAFVENVPPTQEHTEKLAERISLIRETIYGRMWYFTSDFSRGDTAYTKLALDRHTDTTYFQEPCGIQVFHCLKHEGTGGRTLLVDGFYAAEQVLQKAPEEFELLSKVPLKHEYIEDVGECHNHMIGIGPVLNIYPWNKELYLIRYNNYDRAVINTVPYDVVHRWYTAHRTLTIELRRPENEFWVKLKPGRVLFIDNWRVLHGRECFTGYRQLCGCYLTRDDVLNTARLLGLQA | not soluble
13 | MYAMKEEDCLQTFHNLQDYQDQFHLHHHPQILPWSSTSLPSFDPLHFPSNPTRYSDPVHYFNRRASSSSSSFDYNDGFVSPPPSMDHPQNHLRILSEALGPIMRRGSSFGFDGEIMGKLSAQEVMDAKALAASKSHSEAERRRRERINTHLAKLRSILPNTTKTDKASLLAEVIQHMKELKRQTSQITDTYQVPTECDDLTVDSSYNDEEGNLVIRASFCCQDRTDLMHDVINALKSLRLRTLKAEIATVGGRVKNILFLSREYDDEEDHDSYRRNFDGDDVEDYDEERMMNNRVSSIEEALKAVIEKCVHNNDESNDNNNLEKSSSGGIKRQRTSKMVNRCYN | soluble
14 | MYCIEEKIEKALGIKEASLVLKNCNIVNVFSSEIIRGDLAIDGDTIIGIGKYKGKTEIDLSNKYVAPGFIDSHVHIESSMVSPKEFARAVISRGTTTIIVDPHEIANVCGMDGIKYMMEETKNMPLDVFFMLSSCVPLEHHHHHH | not soluble
15 | MYCPFCHNDQSRVIDSRVIDSGSAIRRRRECTQCKNRFTTVEKAQLLVVKRNGLTEPFSREKVIVGVRRACQGRDVSDDALKRLAQQVEERVRLHGSSQIHANEIGLAILEPLRELDEVAYLRFASVYKSFESADDFESEIRLMRRRDRSN | not soluble
16 | MYDNTTDTKMQAERQKKSCTTVGGVLAYSVPTGLHRCDSAVTRVEEVHMAEMVEIPAALYGRGAVRVVPVDSTVRLDVKIPAALMRKLMIESNRSGVPLTKIVDRLLSAAIAQDSEQEEIRPR | not soluble
17 | MYFPAAIDTSLAAEDLGIWAPIDHQRIISLLTIGLGVLYHREKAISLEPLPETMLDEGKASPVPDISLRDNSASQTPIIIEVCHTNGLKGDLRKVIQLIDDGDYGIQEGFIYDYRAGTWVLYRSGGDGLTQSTSFSDILQLDLNQFL | not soluble
18 | MYGRKLYNVDQTNVYASLMFETEFNKQNSFSAGLSFNYDAYDQHYRLENQTELPLIKAFAKEAVPGAYAQYTLNLNDQWMLMAGLRGDYSNEHGFFVTPRAHLKYNPNEYVHFRLSAGKGYRTNHVLAENNYLLSSSRKVEIAKGLDMEEAWNYGASVSTYVPVFGKTLNINAEYYYTDFLKQVVVDMDSNPHEVAFYNLDGRSYSHVFQVEASYPFFKGFTLTGAYRLTDAQTTYKGQRMEKPLTSKYKGLLTASYQTPLGIWQFDATLQLNGGGRMPSPYELADGQLSWERRYGSFEQLSAQITRYFRRWSVYIGGENLTNFKQKNPIIDAANPWGGNFDSTMIWGPVHGAKAYIGIRFNLARNE | not soluble
19 | MYGVLVIGAPGAGKSTFCAGLTDIFSQTKRPFLTINLDPANDTMAYAPDVNITEMITVNDVMDRLGLGPNGALKYCIETLGANCNWLLQKIEANHKKYLIIDCPGQLELYKSEGELWKVIRFLEKSGVRLCALHLADSLYCSDPSKFISVALSTLATMVTMEMPQVNCLSKADLFSEDGTYDLEFFSHLPDVNRLLDLLNEVPGLEKYRKLNEAICGVISDFDLVSFVPLAVENKESMMKVIQMVDAANGFSLTEQGDIRELILNSKA | not soluble
20 | MYHGMNPSNGDGFLEQQQQQQQPQSPQRLLAVILWFQLALCFGPAQLTGGFDDLQVCADPGIPENGFRTPSGGVFFEGSVARFHCQDGFKLKGATKRLCLKHFNGTLGWIPSDNSICVQEDCRIPQIEDAEIHNKTYRHGEKLIITCHEGFKIRYPDLHNMVSLCRDDGTWNNLPICQGCLRPLASSNGYVNISELQTSFPVGTVISYRCFPGFKLDGSAYLECLQNLIWSSSPPRCLALEGGRPEHLFPVLYFPHIRLAAAVLYFCPVLKSSPTPAPTCSSTSTTTSLF | soluble
21 | MYILVTTGSMGFKRLFDAIVKSVIGKRIVIQTGKIDPTIYRNQNVTTFSFDPDLEKWIANASLVITHQGKTAMEAVVMYRKPVIMVYNNDWKSATTLSDAKKYAEILGATFLSDPITWSDYNVLLEAIENANEPNVFDTGTPNLVKHVLSEL | soluble
